Experimental data: publication PMC3696110, “Hsp70 Oligomerization Is Mediated by an Interaction between the Interdomain Linker and the Substrate-Binding Domain” (PLoS ONE, 2013)
Read-outs that look alike come from different tables or passages of the source. Each block holds one substance with its values, some of them ahead of it.

Tests used:
P0DMV8 [1] = assay: SEC; analytical SEC, Superdex 75 10/300 GL, 4 °C, 50 mM Tris pH 7.4, 150 mM KCl, 5 mM MgCl2; 70 µM protein
P0DMV8 [2] = assay: SEC; analytical SEC, Superdex 75 10/300 GL, 4 °C, 50 mM Tris pH 7.4, 150 mM KCl, 5 mM MgCl2; 6 µM protein
P0DMV8 [3] = assay: native MS; nESI-MS, 150 mM ammonium acetate pH 7.4, protein 6 µM (6-15 µM); abundances from the most abundant charge states
[4] = target: FL-Hsp70 2LD, full-length human Hsp70 with Leu395 and Leu397 substituted by aspartic residues (human) (UniProt P0DMV8); assay: SEC; analytical SEC, Superdex 75 10/300 GL, 4 °C; 220 µM protein
[5] = target: SBD641 (384-641), full-length substrate-binding domain of human Hsp70 with the interdomain linker (human) (UniProt P0DMV8); assay: SEC; analytical SEC, Superdex 75 10/300 GL, 4 °C, 50 mM Tris pH 7.4, 150 mM KCl, 5 mM MgCl2; 70 µM protein
[6] = target: SBD641 (384-641), full-length substrate-binding domain of human Hsp70 with the interdomain linker (human) (UniProt P0DMV8); assay: SEC; fraction of oligomeric species set beside DLS (Figure S3C), without NR peptide; 20 µM protein named for the panel
[7] = target: SBD641 (384-641), full-length substrate-binding domain of human Hsp70 with the interdomain linker (human) (UniProt P0DMV8); assay: SEC; fraction of oligomeric species set beside DLS (Figure S3C), with 14-times excess of NR peptide; 20 µM SBD641 named for the panel
[8] = target: SBD641 (384-641), full-length substrate-binding domain of human Hsp70 with the interdomain linker (human) (UniProt P0DMV8); assay: SEC + other: dynamic light scattering; fraction of oligomers (SEC) and apparent hydrodynamic diameter (DLS) of SBD641 against protein concentration; extrapolation to 0.5 oligomer fraction
[9] = target: dansyl-NR peptide (NRLLLTG, N-terminally labelled with dansyl); assay: other fluorescence titration; chaperone titrated into 2 µM dansyl-NR peptide, 1 h at 25 °C, 50 mM Tris pH 7.4, 150 mM KCl, 5 mM MgCl2; single-site fit, apparent Kd
[10] = target: SBD641 (384-641), full-length substrate-binding domain of human Hsp70 with the interdomain linker (human) (UniProt P0DMV8); assay: native MS + SEC; oligomerization constant estimated from the populations of Table 1; equilibrium of monomer, dimer and trimer
[11] = target: SBD641 (384-641), full-length substrate-binding domain of human Hsp70 with the interdomain linker (human) (UniProt P0DMV8); assay: SEC; analytical SEC, Superdex 75 10/300 GL, 4 °C, 50 mM Tris pH 7.4, 150 mM KCl, 5 mM MgCl2; 6 µM protein
[12] = target: SBD641 (384-641), full-length substrate-binding domain of human Hsp70 with the interdomain linker (human) (UniProt P0DMV8); assay: SEC; analytical SEC after 1 h at room temperature with a 14-fold excess of NR peptide; protein concentration of this panel not stated
[13] = target: SBD641 (384-641), full-length substrate-binding domain of human Hsp70 with the interdomain linker (human) (UniProt P0DMV8); assay: native MS; nESI-MS, 150 mM ammonium acetate pH 7.4, protein 6 µM (6-15 µM); abundances from the most abundant charge states
[14] = target: SBD641 (384-641), full-length substrate-binding domain of human Hsp70 with the interdomain linker (human) (UniProt P0DMV8); assay: as above; remark: listed apart in the source
[15] = target: full-length human Hsp70 (Hsp70 1A) (human) (UniProt P0DMV8); assay: SEC; analytical SEC, Superdex 75 10/300 GL, 4 °C, 50 mM Tris pH 7.4, 150 mM KCl, 5 mM MgCl2; 70 µM protein
[16] = target: full-length human Hsp70 (Hsp70 1A) (human) (UniProt P0DMV8); assay: SEC; analytical SEC, Superdex 75 10/300 GL, 4 °C; 220 µM protein
[17] = target: full-length human Hsp70 (Hsp70 1A) (human) (UniProt P0DMV8); assay: SEC; analytical SEC, Superdex 75 10/300 GL, 4 °C, 50 mM Tris pH 7.4, 150 mM KCl, 5 mM MgCl2; 6 µM protein
[18] = target: full-length human Hsp70 (Hsp70 1A) (human) (UniProt P0DMV8); assay: native MS; nESI-MS, 150 mM ammonium acetate pH 7.4, protein 6 µM (6-15 µM); abundances from the most abundant charge states
[19] = target: ΔLSBD641 (394-641), SBD641 of human Hsp70 without the first ten residues of the interdomain linker (human) (UniProt P0DMV8); assay: SEC; analytical SEC, Superdex 75 10/300 GL, 4 °C, 50 mM Tris pH 7.4, 150 mM KCl, 5 mM MgCl2; 70 µM protein
[20] = target: ΔLSBD641 (394-641), SBD641 of human Hsp70 without the first ten residues of the interdomain linker (human) (UniProt P0DMV8); assay: SEC; fraction of oligomeric species set beside DLS (Figure S3C), without NR peptide; 20 µM protein named for the panel
[21] = target: ΔLSBD641 (394-641), SBD641 of human Hsp70 without the first ten residues of the interdomain linker (human) (UniProt P0DMV8); assay: SEC; analytical SEC, Superdex 75 10/300 GL, 4 °C, 50 mM Tris pH 7.4, 150 mM KCl, 5 mM MgCl2; 6 µM protein
[22] = target: ΔLSBD641 (394-641), SBD641 of human Hsp70 without the first ten residues of the interdomain linker (human) (UniProt P0DMV8); assay: native MS; nESI-MS, 150 mM ammonium acetate pH 7.4, protein 6 µM (6-15 µM); abundances from the most abundant charge states
P0DMV8 [23] = assay: SEC; analytical SEC of SBD641 refolded after thermal denaturation; protein concentration of this panel not stated
P0DMV8 [24] = assay: SEC; analytical SEC after 1 h at room temperature with a 14-fold excess of NR peptide; protein concentration of this panel not stated
[25] = target: SBD556 (384-556) of human Hsp70 with the L542Y mutation (human) (UniProt P0DMV8); assay: SEC; analytical SEC, Superdex 75 10/300 GL, 4 °C, 50 mM Tris pH 7.4, 150 mM KCl, 5 mM MgCl2; 70 µM protein
[26] = target: SBD556 (384-556) of human Hsp70 with the L542Y mutation (human) (UniProt P0DMV8); assay: SEC; analytical SEC, Superdex 75 10/300 GL, 4 °C, 50 mM Tris pH 7.4, 150 mM KCl, 5 mM MgCl2; 6 µM protein
[27] = target: SBD556 (384-556) of human Hsp70 with the L542Y mutation (human) (UniProt P0DMV8); assay: native MS; nESI-MS, 150 mM ammonium acetate pH 7.4, protein 6 µM (6-15 µM); abundances from the most abundant charge states

Sequence of FL-Hsp70 2LD, full-length human Hsp70 with Leu395 and Leu397 substituted by aspartic residues (P0DMV8 whole entry): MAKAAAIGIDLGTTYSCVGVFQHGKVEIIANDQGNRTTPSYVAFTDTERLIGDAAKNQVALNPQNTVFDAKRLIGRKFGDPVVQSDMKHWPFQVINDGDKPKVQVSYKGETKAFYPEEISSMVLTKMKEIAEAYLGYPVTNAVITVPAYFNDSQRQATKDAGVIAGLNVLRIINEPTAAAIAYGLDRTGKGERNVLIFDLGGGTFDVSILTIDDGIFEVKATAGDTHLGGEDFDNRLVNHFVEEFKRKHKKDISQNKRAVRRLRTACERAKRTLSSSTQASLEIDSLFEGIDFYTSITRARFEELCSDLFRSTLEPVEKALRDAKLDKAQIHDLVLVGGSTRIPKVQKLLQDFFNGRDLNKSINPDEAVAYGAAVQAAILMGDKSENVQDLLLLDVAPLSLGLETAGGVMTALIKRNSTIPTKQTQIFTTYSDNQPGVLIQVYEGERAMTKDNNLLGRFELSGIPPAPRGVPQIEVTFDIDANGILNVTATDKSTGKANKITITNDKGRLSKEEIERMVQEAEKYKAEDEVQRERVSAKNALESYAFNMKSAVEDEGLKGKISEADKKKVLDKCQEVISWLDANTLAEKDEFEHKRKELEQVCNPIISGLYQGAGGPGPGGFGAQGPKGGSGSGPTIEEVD

Substance: ΔLSBD641 (394-641), SBD641 of human Hsp70 without the first ten residues of the interdomain linker
- % monomer (P0DMV8 [1]): 86%
- % monomer (P0DMV8 [2]): 91%
- % monomer (P0DMV8 [3]): 92%

Substance: SBD556 (384-556) of human Hsp70 with the L542Y mutation
- % monomer (P0DMV8 [1]): 93%
- % monomer (P0DMV8 [2]): 97%
- % monomer (P0DMV8 [3]): 82%

- % oligomeric species [4]: < 9%
Substance: FL-Hsp70 2LD, full-length human Hsp70 with Leu395 and Leu397 substituted by aspartic residues (from UniProt P0DMV8 1-641) (natural protein)

- % dimer [5]: 55%
- % higher-order oligomers [5]: 22%
- % total oligomers [5]: 77%
- fraction of oligomeric species [6]: 0.7
- fraction of oligomeric species [7]: 0.5
- Kd [8]: 1 to 10 µM
- Kd [9]: 11 µM
- Kd [10]: 5 to 10 µM
- % dimer [11]: 44%
- % total oligomers [11]: 63%
- % dimer [12]: 24%
- % higher-order oligomers [12]: 18%
- % tetramer [13]: 2%
- % trimer [13]: 12%
- % dimer [14]: 40%
- % total oligomers [14]: 54%
- % trimer [14]: 10%
Substance: SBD641 (384-641), full-length substrate-binding domain of human Hsp70 with the interdomain linker (from UniProt P0DMV8 384-641) (domain or fragment)

- % dimer [15]: 7%
- % oligomeric species [15]: 10%
- % total oligomers [15]: 7%
- % oligomeric species [16]: 35%
- Kd [9]: 9 µM
- % dimer [17]: 1%
- % total oligomers [17]: 1%
- % dimer [18]: 2%
- % total oligomers [18]: 2%
- % trimer [18]: -0%
Substance: full-length human Hsp70 (Hsp70 1A) (from UniProt P0DMV8 1-641) (natural protein)

- % dimer [19]: 14%
- % total oligomers [19]: 14%
- fraction of oligomeric species [20]: 0.1
- Kd [9]: 8 µM
- % dimer [21]: 9%
- % total oligomers [21]: 9%
- % dimer [22]: 8%
- % total oligomers [22]: 8%
- % trimer [22]: -0%
Substance: ΔLSBD641 (394-641), SBD641 of human Hsp70 without the first ten residues of the interdomain linker (from UniProt P0DMV8 394-641) (domain or fragment)

Substance: full-length human Hsp70 (Hsp70 1A)
- % monomer (P0DMV8 [1]): 93%
- % monomer (P0DMV8 [2]): 99%
- % monomer (P0DMV8 [3]): 98%

Substance: SBD641 (384-641), full-length substrate-binding domain of human Hsp70 with the interdomain linker
- % monomer (P0DMV8 [1]): 23%
- % monomer (P0DMV8 [23]): a dramatic increase in the monomeric fraction of the refolded protein compared to the native protein (from 37% to 71%)
- % monomer (P0DMV8 [2]): 37%
- % monomer (P0DMV8 [24]): the monomeric fraction increases from 37% to 58% in the presence of peptide
- % monomer (P0DMV8 [3]): 46%

- % dimer [25]: 7%
- % total oligomers [25]: 7%
- Kd [9]: 53 µM
- % dimer [26]: 3%
- % total oligomers [26]: 3%
- % dimer [27]: 16%
- % total oligomers [27]: 18%
- % trimer [27]: 2%
Substance: SBD556 (384-556) of human Hsp70 with the L542Y mutation (from UniProt P0DMV8 384-556) (domain or fragment)
